From patent US20190016816A1 (APTEVO RESEARCH AND DEVELOPMENT, published 2019)

T1: human 5T4 on cells (human, UniProt Q13641 32-420)
T1 construct: also called TPBG; hu5T4
T1 sequence: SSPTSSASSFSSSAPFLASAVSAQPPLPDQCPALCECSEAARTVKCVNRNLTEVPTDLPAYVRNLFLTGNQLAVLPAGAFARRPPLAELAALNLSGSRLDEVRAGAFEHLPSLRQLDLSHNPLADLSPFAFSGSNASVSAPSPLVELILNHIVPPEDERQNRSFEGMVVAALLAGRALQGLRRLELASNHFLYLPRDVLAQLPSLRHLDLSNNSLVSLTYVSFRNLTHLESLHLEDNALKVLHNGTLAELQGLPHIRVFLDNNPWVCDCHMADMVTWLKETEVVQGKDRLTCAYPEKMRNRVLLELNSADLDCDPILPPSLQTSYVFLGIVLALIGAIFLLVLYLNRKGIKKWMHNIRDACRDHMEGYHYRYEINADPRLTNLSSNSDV


Columns and labels:
human 5T4 on cells [1] = target: T1, human 5T4 on cells; assay: flow cytometry, SKOV-3 cells (endogenous human 5T4), labelled anti-human IgG secondary, MFI (mean)
Method: Binding studies were performed by standard flow cytometry-based staining procedures two cell lines expressing 5T4:CHO-K1 cells (obtained from Alligator) transduced with human or cynomolgus macaque 5T4 and SKOV-3 human ovarian adenocarcinoma cells which express (human) 5T4. All labeling and washes were performed in U-bottom 96-well plates in saline buffer with 0.1% BSA and 2 mM EDTA. Cell were plated at approximately 100,000 cells per well and incubated with a range of 100 nM to 0.05 nM concentrations of test molecules in […], for 30 minutes on ice. Cells were washed three times then incubated for another 30 min on ice with fluorescently-labeled secondary polyclonal antibody, F(ab′)² goat anti-human IgG (Jackson ImmunoResearch Laboratories). The cells were then washed twice and the samples acquired in a BD LSRII or a Symphony A3 flow cytometer. The sample files were analyzed using FlowJo software; the mean fluorescence intensity (MFI-mean) or median fluorescence intensity (MFI-median) of the live population of cells in each well was calculated after gating on live cells (forward vs side scatter). Nonlinear regression analysis to determine EC₅₀ values was performed in GraphPad Prism 6® graphing and statistics software.

human 5T4 on cells [2] = target: T1, human 5T4 on cells; assay: flow cytometry, CT26-hu5T4^low cells, streptavidin-PE, normalized MFI of 2 pooled experiments
Method: (§1) Prior to the FACS staining, all cell lines were characterized for their 5T4 expression levels using a receptor density kit (Quantum Simply Cellular, anti-human IgG, Bangs Laboratories, Inc). Adherent cell lines were cultured according to their supplier's instructions and were harvested from their cell culture flasks using Trypsin/EDTA, counted in R10 medium in a Burker chamber, and diluted in FACS buffer (PBS+0.5% BSA, 0.05% NaN₃) to a concentration of 4×10⁶ cells/mL. 50 μL (0.20×10⁶) of cell solution was added to a 96-well FACS staining plate (Falcon #351190). Cells were incubated for 20 min in 4° C. with 50 μL of the biotinylated ALG.APV-210 (2× final concentration). The antibodies were added in a serial dilution starting at 20 μg/mL titrating down in a 12 step ½ dilution down to 0.010 μg/mL. Following 2× washing with FACS buffer, cells were incubated for 30 min in 4° C. with 100 μL of a secondary antibody (streptavidin-PE, BD #554061, diluted 1/500). […] Cells were analysed for ALG.APV-210 binding using flow cytometry (FACSVerse) by gating on single cells. MFI values (secondary antibody only subtracted) from 1 out of 2 independent experiments, as well as normalized data and EC₅₀-values of pooled data from 2 experiments were determined and plotted using GraphPad Prism 7, non-linear regression log (agonist) vs. normalized response—variable slope.

[3] = target: T2, cynomolgus CD137 on cells (cynomolgus macaque, UniProt A9YYE7 24-254); assay: flow cytometry, percentage of CD8 T cells (gated from CD3-stimulated cynomolgus PBMC) bound by the biotinylated antibody, exp 1, n=3 donors
T2 construct: whole, on cells; also called CHO-K1/cynomolgus CD137 cell line; cynomolgus monkey CD137 on CD3-stimulated primary CD8 T cells
Method: Following 48 h of incubation with or without CD3, human and cynomolgus PBMC were harvested, pooled, recounted and diluted in FACS buffer (PBS+0.5% BSA, 0.05% NaN₃) to a concentration of 5×10⁶ cells/mL. 50 μL (0.25×10⁶ cells) of cell solution was added to a 96-well FACS staining plate (Falcon #351190). Following 10 min of Fc-blocking in RT using Beriglobin (hIgG, 200 μg/mL), cells were washed in FACS buffer and then incubated for 1 h in 4° C. with 100 μL of the biotinylated ALG.APV-210 or negative control. The antibodies were added in a serial dilution starting either at 5 μg/mL titrating down in a 12 step ⅓ dilution down to […] (exp 1) or 1 μg/mL titrating down in a 12 step ½ dilution down to 0.0005 μg/mL (exp 2). […] Cells were analysed for ALG.APV-210 binding using flow cytometry by gating on viable, single cells expressing CD3 and CD8. MFI values (FMO subtracted) from 2 independent experiments as well as normalized pooled data from 2 experiments and EC₅₀-values were determined and plotted using GraphPad Prism 7, non-linear regression log (agonist) vs. normalized response—variable slope, n=6 donors/group.

human 5T4 on cells [4] = target: T1, human 5T4 on cells; assay: flow cytometry, CHO-hu5T4 cells, streptavidin-PE, normalized MFI of 2 pooled experiments
Method: as §1

T2 sequence (A9YYE7 entry or part of it): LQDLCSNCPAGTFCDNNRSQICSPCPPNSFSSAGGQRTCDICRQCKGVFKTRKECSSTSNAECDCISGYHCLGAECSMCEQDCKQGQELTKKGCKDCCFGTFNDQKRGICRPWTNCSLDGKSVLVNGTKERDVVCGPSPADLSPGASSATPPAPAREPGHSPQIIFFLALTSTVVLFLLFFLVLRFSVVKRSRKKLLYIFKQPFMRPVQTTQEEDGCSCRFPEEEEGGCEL

EC50 (human 5T4 on cells [1]) | Maximum MFI (human 5T4 on cells [1]) | Binder | EC50 (human 5T4 on cells [2]) | EC50 (read off the curve) [3] | EC50 (human 5T4 on cells [4])
9.2 nM | 1800 | ALG.APV-187 (bispecific antibody, Optimized ADAPTIR scFv-Fc-scFv homodimer with stabilizing disulfide in the 1210 scFv) EVQLLESGGGLVQPGGSLRLSCAASGFTFSHGSMYWVRQAPGKGLEWVSSISSGSGSTYYADSVKGRFTISHDNSKNTLYLQMNSLRAEDTAVYYCARSSYYGSYYSIDYWGQGTLVTVSSGGGGSGGGGSGGGGSGGGGSDIQMTQSPSSLSASVGDRVTITCRASQSISSYLNWYQQKPGKAPKLLIYAASSLQSGVPSRFSGSGSGTDFTLTISSLQPEDFATYYCQQYYDNLPTFGQGTKLEIKSSEPKSSDKTHTCPPCPAPEAAGAPSVFLFPPKPKDTLMISRTPEVTCVVVDVSHEDPEVKFNWYVDGVEVHNAKTKPREEQYNSTYRVVSVLTVLHQDWLNGKEYKCAVSNKALPAPIEKTISKAKGQPREPQVYTLPPSRDELTKNQVSLTCLVKGFYPSDIAVEWESNGQPENNYKTTPPVLDSDGSFFLYSKLTVDKSRWQQGNVFSCSVMHEALHNHYTQKSLSLSPGSGGGGSGGGGSGGGGSPSEVQLLESGGGLVQPGGSLRLSCAASGFTFSSYAMSWVRQAPGKCLEWVSAISGSGGSTYYADSVKGRFTISRDNSKNTLYLQMNSLRAEDTAVYYCARYYGGYYSAWMDYWGQGTLVTVSSGGGGSGGGGSGGGGSGGGGSDIQMTQSPSSLSASVGDRVTITCRASQSISSFLNWYQQKPGKAPKLLIYAASSLQSGVPSRFSGSGSGTDFTLTISSLQPEDSATYYCQQTYGYLHTFGCGTKLEIKR | – | – | –
– | – | biotinylated ALG.APV-210 (bispecific antibody, also called ALG.APV-210 (biotinylated for FACS detection)) EVQLLESGGGLVQPGGSLRLSCAASGFTFSHGSMYWVRQAPGKGLEWVSSISSGSGSTYYADSVKGRFTISHDNSKNTLYLQMNSLRAEDTAVYYCARSSYYGSYYSIDYWGQGTLVTVSSGGGGSGGGGSGGGGSGGGGSDIQMTQSPSSLSASVGDRVTITCRASQSISSYLNWYQQKPGKAPKLLIYAASSLQSGVPSRFSGSGSGTDFTLTISSLQPEDFATYYCQQYYDNLPTFGQGTKLEIKEPKSSDKTHTCPPCPAPEAAGAPSVFLFPPKPKDTLMISRTPEVTCVVVDVSHEDPEVKFNWYVDGVEVHNAKTKPREEQYNSTYRVVSVLTVLHQDWLNGKEYKCAVSNKALPAPIEKTISKAKGQPREPQVYTLPPSRDELTKNQVSLTCLVKGFYPSDIAVEWESNGQPENNYKTTPPVLDSDGSFFLYSKLTVDKSRWQQGNVFSCSVMHEALHNHYTQKSLSLSPGSGGGGSGGGGSGGGGSPSEVQLLESGGGLVQPGGSLRLSCAASGFTFSSYAMSWVRQAPGKCLEWVSAISGSGGSTYYADSVKGRFTISRDNSKNTLYLQMNSLRAEDTAVYYCARYYGGYYSAWMDYWGQGTLVTVSSGGGGSGGGGSGGGGSGGGGSDIQMTQSPSSLSASVGDRVTITCRASQSISSFLNWYQQKPGKAPKLLIYAASSLQSGVPSRFSGSGSGTDFTLTISSLQPEDSATYYCQQTYGYLHTFGCGTKLEIKR | 11 nM | ~0.02 nM | 23 nM
